Experiment [1] addresses untagged recombinant full-length human α-synuclein (human, UniProt P37840 1-140). Nature of the experiment: dot blot. As for the experimental part: (§1) 45 ng/spot was applied to the nitrocellulose. Total Tau was determined using Tau12. […] Each point represents a minimum of three independent measurements. […] Scale bar is 200 nm. […] Monomeric and dimeric Tau were isolated from the same aggregation reaction. Also included is an electroeluted monomeric sample that was never exposed to AA (−AA). 12 ng/spot was applied to the nitrocellulose.
(§2) For dot blots, samples were spotted directly onto nitrocellulose membranes (44). Both Western and dot blot membranes were blocked with 5% nonfat dry milk in TBS, pH 7.4, and incubated in primary antibodies overnight at 4° C. For dot blots, 0.05% Triton X-100 was added to the TBS solution. The Tau12 (45), TauS (46), Tau7 (47), MOAB-2 (a mouse monoclonal antibody (IgG1) produced in the Binder laboratory what recognizes Aβ40 and −42), and TOC1 mouse monoclonal antibodies were used at 0.0067, 0.01, 0.04, 0.05, and 0.1 μg/ml, respectively. The mouse monoclonal anti-α-synuclein (Chemicon; MAB5320) and rabbit monoclonal anti-β-actin (Cell Signaling Technology; clone 13E5) antibodies were diluted to 1:2000 and 1:1000, respectively. The rabbit polyclonal antibodies R1 (48) and His-probe (Santa Cruz Biotechnology; clone H-15) were used at 0.0075 and 0.5 μg/ml, respectively. […]

For experiment [2], the target named is T1, recombinant human Aβ42 (rPeptide) (human, UniProt P05067 672-713).
T1 construct: domain: Aβ42; Tested in the monomeric (unaggregated), oligomeric and filamentous states; also called Aβ Olig; Aβ Fil
T1 sequence (P05067 672-713 limits assumed): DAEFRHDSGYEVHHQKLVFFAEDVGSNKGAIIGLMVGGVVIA
In words: dot blot. As for the experimental part:
as §1, §2

Experiment [3] has as its target T2, Tau MTBR construct consisting of residues 244-372 of hTau40 (human, UniProt P10636 561-689).
T2 construct: Expressed in E. coli from pET-17b; Assembled with AA before the dot blot; not shown: poly-His tag C-terminal to residue 372
In words: dot blot of AA-assembled construct.

Experiment [4] deals with tau deletion construct Δ209-228 (hTau40), aggregated (human, UniProt P10636 1-758). Nature of the experiment: aggregated deletion construct incubated with the antibody. Here is the method: (§3) Two overlapping tau deletion constructs (Δ209-228 and Δ221-238) were aggregated and incubated with the TOC1 antibody or with the Tau7 antibody. Both were positive for Tau7 which recognizes the last 11 amino acids of tau, but negative for TOC1.
tau deletion construct Δ209-228 (hTau40), aggregated, sequence (P10636 other isoform, or with tags, fused parts or gaps mutant): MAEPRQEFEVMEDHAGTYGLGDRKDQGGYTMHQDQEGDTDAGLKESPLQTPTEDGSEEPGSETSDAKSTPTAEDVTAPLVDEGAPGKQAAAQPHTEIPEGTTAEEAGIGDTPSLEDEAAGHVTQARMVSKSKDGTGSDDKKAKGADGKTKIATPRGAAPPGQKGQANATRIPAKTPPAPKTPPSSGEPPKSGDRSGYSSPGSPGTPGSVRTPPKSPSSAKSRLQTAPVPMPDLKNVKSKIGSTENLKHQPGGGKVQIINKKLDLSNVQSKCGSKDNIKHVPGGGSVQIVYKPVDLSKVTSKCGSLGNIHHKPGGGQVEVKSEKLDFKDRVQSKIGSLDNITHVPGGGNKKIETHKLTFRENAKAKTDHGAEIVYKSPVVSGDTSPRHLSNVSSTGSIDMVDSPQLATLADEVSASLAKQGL

For experiment [5], the target named is tau deletion construct Δ221-238 (hTau40), aggregated (human, UniProt P10636 1-758). The experiment is described as above. As for the experimental part:
as §3

Experiment [6] concerns the target T3, Tau oligomers (hTau40 aggregates <50 nm in length; sucrose gradient Fraction 3) (human, UniProt P10636 1-758).
T3 construct: Prefibrillar aggregates of recombinant poly-His tagged hTau40 made with arachidonic acid; The number of chains is not defined; also called oligomeric structures; oligomer fraction
In words: immunogold EM, normalised to poly-His tag labeling of the same preparation.

T2 sequence (P10636 other isoform, or with tags, fused parts or gaps): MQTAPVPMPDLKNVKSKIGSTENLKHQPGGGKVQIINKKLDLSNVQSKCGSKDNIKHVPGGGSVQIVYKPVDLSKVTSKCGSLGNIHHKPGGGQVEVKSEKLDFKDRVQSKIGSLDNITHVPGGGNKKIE
T3 sequence (P10636 other isoform, or with tags, fused parts or gaps limits assumed): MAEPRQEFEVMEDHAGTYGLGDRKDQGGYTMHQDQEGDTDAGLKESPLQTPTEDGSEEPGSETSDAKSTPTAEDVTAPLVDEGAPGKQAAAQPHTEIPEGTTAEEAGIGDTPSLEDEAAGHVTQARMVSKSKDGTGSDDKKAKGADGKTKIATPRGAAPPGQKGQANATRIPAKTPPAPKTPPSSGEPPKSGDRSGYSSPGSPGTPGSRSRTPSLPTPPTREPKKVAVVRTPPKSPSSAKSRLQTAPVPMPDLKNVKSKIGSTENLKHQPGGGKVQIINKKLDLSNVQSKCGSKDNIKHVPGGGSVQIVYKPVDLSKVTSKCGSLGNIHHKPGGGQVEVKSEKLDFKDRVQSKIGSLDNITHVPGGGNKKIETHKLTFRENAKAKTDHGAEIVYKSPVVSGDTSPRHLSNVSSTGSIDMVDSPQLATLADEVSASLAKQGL
tau deletion construct Δ221-238 (hTau40), aggregated, sequence (P10636 other isoform, or with tags, fused parts or gaps mutant): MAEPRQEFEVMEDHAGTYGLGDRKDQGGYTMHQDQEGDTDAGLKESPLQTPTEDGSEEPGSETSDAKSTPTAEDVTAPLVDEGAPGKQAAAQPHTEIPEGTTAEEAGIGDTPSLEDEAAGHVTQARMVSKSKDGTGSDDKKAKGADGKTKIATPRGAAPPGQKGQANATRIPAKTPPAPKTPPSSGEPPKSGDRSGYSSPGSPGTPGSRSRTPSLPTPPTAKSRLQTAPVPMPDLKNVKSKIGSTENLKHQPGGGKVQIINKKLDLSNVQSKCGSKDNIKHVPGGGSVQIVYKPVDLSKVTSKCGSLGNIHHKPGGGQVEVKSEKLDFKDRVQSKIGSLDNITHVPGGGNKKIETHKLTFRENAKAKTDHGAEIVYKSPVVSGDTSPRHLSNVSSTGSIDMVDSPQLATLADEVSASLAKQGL

B1: Tau oligomeric complex-1 (TOC1) monoclonal antibody (antibody)
heavy: QVQLQQPGAELVMPGASVKLSCKASGYTFTSYWMHWVKQRPGQGLEWIGEIDPSDSYTNYNQKFKGKSTLTVDKSSSTAYMQLSSLTSEDSAVYYCARSGDGSSPWYFDVWGTGTTVTVSSESQSFPNVFPLVSCESPLSDKNLVAMGCLARDFLPSTISFTWNYQNNTEVIQGIRTFPTLRTGGKYLATSQVLLSPKSILEGSDEYLVCKIHYGGKNKDLHVPIPAVAEMNPNVNVFVPPRDGFSGPAPRKSKLICEATNFTPKPITVSWLKDGKLVESGFTTDPVTIENKGSTPQTYKVISTLTISEIDWLNLNVYTCRVDHRGLTFLKNVSSTCAASPSTDILTFTIPPSFADIFLSKSANLTCLVSNLATYETLNISWASQSGEPLETKIKIMESHPNGTFSAKGVASVCVEDWNNRKEFVCTVTHRDLPSPQKKFISKPNEVHKHPPAVYLLPPAREQLNLRESATVTCLVKGFSPADISVQWLQRGQLLPQEKYVTSAPMPEPGAPGFYFTHSILTVTEEEWNSGETYTCVVGHEALPHLVTERTVDKSTGKPTLYNVSLIMSDTGGTCY
light: DVLMTQTPLSLPVSLGDQASISCRSSQSIVHSNGNTYLEWYLQKPGQSPKLLIYKVSNRFSGVPDRFSGSGSGTDFTLKISRVEAEDLGVYYCFQGSHVPRTFGGGTKLEIKRADAAPTVSIFPPSSEQLTSGGASVVCFLNNFYPKDINVKWKIDGSERQNGVLNSWTDQDSKDSTYSMSSTLTLTKDEYERHNSYTCEATHKTSTSPIVKSFNRNEC
notes: Mouse monoclonal of the IgM isotype, purified from hybridoma culture; Raised in Tau null mice against electroeluted B4M cross-linked Tau dimers and boosted with cross-linked oligomers; The light chain protein print marks the leader with a dash; For the heavy chain only the DNA print does (57 nt)
Consider B1, for which the binding result in experiment [1], in experiment [2], in experiment [3], in experiment [4] and in experiment [5] was “no binding” throughout. Further, the “fold preference of immunogold labeling, oligomers over filaments (TOC1:His tag labeling)” value in experiment [6] was > 7 fold.
